What all share (assay): purified protein
Common to all, as to settings: potassium phosphate pH 7.5, 22-23 °C

Substrate in series [1]: O=C(Nc1ccn([C@H]2C[C@H](O)[C@@H](CO)O2)c(=O)n1)c1ccccc1
Substrate in series [2]: O=C(Nc1ccn([C@H]2C[C@H](O)[C@@H](CO)O2)c(=O)n1)c1ccccc1
The series is classed as biochemical, uncultured bacterium.

Substrate in series [3]: Nc1ccn([C@H]2C[C@H](O)[C@@H](CO)O2)c(=O)n1
The series is classed as biochemical, uncultured bacterium.

Setting [4] is: substrate not given, inferred from the stated about twofold rise over wild type.

B1: CDA_F14 (uncultured bacterium; G81L) (protein)
chain: MNKEDLLKKAFEAMENAYAPYSNYHVGACALMKDGTTFLGANIENASYGATNCGERSAIFAAYSNGYRADDIEALAIVTDLDRVGAPCGICRQVLSELLNDNTPIYLSNGKETLEKTIDELLPMRFTKEDLL
In the case of B1, in “purified protein [1]”, the Km entry was “(8.66 ± 3.8) × 10^-4 M” and the kcat entry is on record as “(7.89 ± 3.08) × 10^-1 s^-1”.

B2: CDA_F14 (uncultured bacterium; F126W) (protein)
chain: MNKEDLLKKAFEAMENAYAPYSNYHVGACALMKDGTTFLGANIENASYGATNCGERSAIFAAYSNGYRADDIEALAIVTDGDRVGAPCGICRQVLSELLNDNTPIYLSNGKETLEKTIDELLPMRWTKEDLL
notes: recombinant in E. coli HMS174 delta-pyrF delta-cdd, purified; homotetramer, one Zn per subunit; active site formed by three subunits
On to B2, for which, in the series “purified protein [2]” (setting [4]), the Km entry is given as “(2.11 ± 0.38) × 10^−4 M”.

B3: CDA_F14 (uncultured bacterium) (protein)
chain: MNKEDLLKKAFEAMENAYAPYSNYHVGACALMKDGTTFLGANIENASYGATNCGERSAIFAAYSNGYRADDIEALAIVTDGDRVGAPCGICRQVLSELLNDNTPIYLSNGKETLEKTIDELLPMRFTKEDLL
notes: as for B2
Take B3: in the series “purified protein [3]”, the Km entry is reported as “(1.95 ± 0.36) × 10^−4 M” and the kcat result was “(24.4 ± 1.71) × 10^−1 s^−1”. Further, in the series “purified protein [2]”, the Km entry is “(1.15 ± 0.16) × 10^−4 M” and the kcat entry is given as “(5.04 ± 0.4) × 10^−1 s^−1”.

B4: CDA_F14 (uncultured bacterium; G81L/G85I) (protein)
chain: MNKEDLLKKAFEAMENAYAPYSNYHVGACALMKDGTTFLGANIENASYGATNCGERSAIFAAYSNGYRADDIEALAIVTDLDRVIAPCGICRQVLSELLNDNTPIYLSNGKETLEKTIDELLPMRFTKEDLL
As to B4, in the series “purified protein [1]”, the Km result is on record as “(4.93 ± 1.3) × 10^-4 M” and the kcat result was “(4.14 ± 0.88) × 10^-2 s^-1”.

B5: CDA_F14 (uncultured bacterium; F126A) (protein)
chain: MNKEDLLKKAFEAMENAYAPYSNYHVGACALMKDGTTFLGANIENASYGATNCGERSAIFAAYSNGYRADDIEALAIVTDGDRVGAPCGICRQVLSELLNDNTPIYLSNGKETLEKTIDELLPMRATKEDLL
On to B5, for which, in the series “purified protein [1]” (setting [4]), the Km entry is given as “(2.59 ± 0.73) × 10^−4 M”.

The values are drawn from publication PMC9897663.
